Source: US20240425609A1 (Regeneron, published 2024)

T1: mouse PD1 (mouse, UniProt Q02242 25-288)
T1 construct: whole, on cells; also called mPD1
T1 sequence (looked up): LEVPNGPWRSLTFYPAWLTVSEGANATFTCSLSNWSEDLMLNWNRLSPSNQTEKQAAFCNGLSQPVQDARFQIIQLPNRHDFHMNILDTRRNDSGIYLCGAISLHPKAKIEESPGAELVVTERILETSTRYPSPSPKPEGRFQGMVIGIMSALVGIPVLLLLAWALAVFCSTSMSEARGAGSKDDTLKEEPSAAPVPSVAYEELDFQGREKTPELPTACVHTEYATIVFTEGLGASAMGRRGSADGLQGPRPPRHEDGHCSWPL

T2: mouse CD20 (mouse, UniProt P19437 1-291)
T2 construct: whole, on cells; also called mCD20; murine CD20
T2 sequence (looked up): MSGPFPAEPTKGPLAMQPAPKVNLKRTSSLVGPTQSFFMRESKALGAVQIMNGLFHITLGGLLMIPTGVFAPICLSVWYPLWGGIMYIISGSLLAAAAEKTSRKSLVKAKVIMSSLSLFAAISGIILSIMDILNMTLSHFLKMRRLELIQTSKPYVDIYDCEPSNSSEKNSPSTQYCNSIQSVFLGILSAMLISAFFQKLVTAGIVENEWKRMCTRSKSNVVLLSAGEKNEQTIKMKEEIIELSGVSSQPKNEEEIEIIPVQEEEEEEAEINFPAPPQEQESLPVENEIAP


Experiments:
mouse PD1 [1] = molecular target: T1, mouse PD1; assay: flow cytometry on Jurkat/mPD1 cells
Method: (§1) Cells (HEK 293, MC38 over-expressing mCD20 or Jurkat over-expressing mPD1) were resuspended in FACS wash (PBS with 1% FBS) at 1×10⁸ cells/mL. The staining was performed in 1×10⁵ cells per well. The antibodies were diluted with a ratio of 1:5 from a starting concentration of 1.3×10⁻⁷ M. The diluted antibodies were then added into the wells containing cells. Cells were stained for 30 min at 2-8° C. and washed twice with FACS wash buffer. APC-conjugated goat anti-human IgG (Jackson Immuno Research, 109-607-003, 1:400) was added to stain the cells for 30 min at 2-8° C. Following washing, cells were fixed in 2% paraformaldehyde for 30 min at 2-8° C. After two washes, stained cells were analyzed using BD LSRFortessa™ FACS instrument. The results were analyzed by FlowJo. FSC/SSC gates were used to select mononuclear cells.

mouse PD1 [2] = molecular target: T1, mouse PD1; assay: cell-based or functional assay
mouse CD20 = molecular target: T2, mouse CD20; assay: flow cytometry on MC38/mCD20 cells
Method: as §1

Row | EC50 (mouse PD1 [1]) [nM] | Max MFI (mouse PD1 [1]) [MFI] | Max % inhibition, AP1-luciferase bioassay, 2.5 nM CD3 bsAb (mouse PD1 [2]) [%] | Max MFI (mouse CD20) [MFI] | IC50 (M), AP1-luciferase bioassay, 2.5 nM CD3 bsAb (mouse PD1 [2]) [M] | EC50 (mouse CD20) [nM] | Binder
1 | 22.4 | 16700 | 11 | 20300 | – | – | 1 + 2 m20_mPL_1 (bispecific antibody, human IgG1, kappa) heavy: QVQLQQPGAELVRPGTSVKLSCKASGYTFTSYWMHWIKQRPGQGLEWIGVIDPSDNYTKYNQKFKGKATLTVDTSSSTAYMQLSSLTSEDSAVYFCAREGYYGSSPWFAYWGQGTLVTVSSASTKGPSVFPLAPSSKSTSGGTAALGCLVKDYFPEPVTVSWNSGALTSGVHTFPAVLQSSGLYSLSSVVTVPSSSLGTQTYICNVNHKPSNTKVDKKVEPKSCDKTHTCPPCPAPEAEGAPSVFLFPPKPKDTLMISRTPEVTCVVVDVSHEDPEVKFNWYVDGVEVHNAKTKPREEQYNSTYRVVSVLTVLHQDWLNGKEYKCKVSNKALPSSIEKTISKAKGQPREPQVCTLPPSRDELTKNQVSLSCAVKGFYPSDIAVEWESNGQPENNYKTTPPVLDSDGSFFLVSKLTVDKSRWQQGNVFSCSVMHEALHNRFTQKSLSLSPGK light: QIVMSQSPAILSASPGEKVTMTCRARSSVSYIHWYQQKPGSSPKPWIYATSNLASGVPGRFSGSGSGTSYSLTITRVEAEDAATYYCQQWSSKPPTFGGGTKLEIKRTVAAPSVFIFPPSDEQLKSGTASVVCLLNNFYPREAKVQWKVDNALQSGNSQESVTEQDSKDSTYSLSSTLTLSKADYEKHKVYACEVTHQGLSSPVTKSFNRGEC not shown
2 | 6.31 | 6980 | 33 | 35300 | 6.5e-11 | 8.42 | 2 + 2 m20_mPL_3 (bispecific antibody, human IgG1, kappa) heavy: QVQLQQPGAELVRPGTSVKLSCKASGYTFTSYWMHWIKQRPGQGLEWIGVIDPSDNYTKYNQKFKGKATLTVDTSSSTAYMQLSSLTSEDSAVYFCAREGYYGSSPWFAYWGQGTLVTVSSASTKGPSVFPLAPSSKSTSGGTAALGCLVKDYFPEPVTVSWNSGALTSGVHTFPAVLQSSGLYSLSSVVTVPSSSLGTQTYICNVNHKPSNTKVDKKVEPKSCDKTHTCPPCPAPEAEGAPSVFLFPPKPKDTLMISRTPEVTCVVVDVSHEDPEVKFNWYVDGVEVHNAKTKPREEQYNSTYRVVSVLTVLHQDWLNGKEYKCKVSNKALPSSIEKTISKAKGQPREPQVCTLPPSRDELTKNQVSLSCAVKGFYPSDIAVEWESNGQPENNYKTTPPVLDSDGSFFLVSKLTVDKSRWQQGNVFSCSVMHEALHNRFTQKSLSLSPGKGGGGSGGGGSGGGGSQVQLQQPGAELVRPGTSVKLSCKASGYTFTSYWMHWIKQRPGQGLEWIGVIDPSDNYTKYNQKFKGKATLTVDTSSSTAYMQLSSLTSEDSAVYFCAREGYYGSSPWFAYWGQGTLVTVSSASTKGPSVFPLAPSSKSTSGGTAALGCLVKDYFPEPVTVSWNSGALTSGVHTFPAVLQSSGLYSLSSVVTVPSSSLGTQTYICNVNHKPSNTKVDKKVEPKSCD not shown light: QIVMSQSPAILSASPGEKVTMTCRARSSVSYIHWYQQKPGSSPKPWIYATSNLASGVPGRFSGSGSGTSYSLTITRVEAEDAATYYCQQWSSKPPTFGGGTKLEIKRTVAAPSVFIFPPSDEQLKSGTASVVCLLNNFYPREAKVQWKVDNALQSGNSQESVTEQDSKDSTYSLSSTLTLSKADYEKHKVYACEVTHQGLSSPVTKSFNRGEC
